Laboratory results from publication PMC12462528, “Molecular basis of ParA ATPase activation by the CTPase ParB during bacterial chromosome segregation” (Nature Communications, 2025).
Positions count from the first letter of the chain named.

T1: ParB-Q52A (Myxococcus xanthus DK1622, UniProt Q1CVJ4 1-296, Q52A)
T1 construct: ParB of Myxococcus xanthus DK1622, variant lacking CTPase activity; Closed clamps formed with CTP and parS DNA; also called CTP hydrolysis-deficient ParB variant; source: E. coli Rosetta(DE3)pLysS, purified (as wild-type ParB)
T1 sequence (looked up): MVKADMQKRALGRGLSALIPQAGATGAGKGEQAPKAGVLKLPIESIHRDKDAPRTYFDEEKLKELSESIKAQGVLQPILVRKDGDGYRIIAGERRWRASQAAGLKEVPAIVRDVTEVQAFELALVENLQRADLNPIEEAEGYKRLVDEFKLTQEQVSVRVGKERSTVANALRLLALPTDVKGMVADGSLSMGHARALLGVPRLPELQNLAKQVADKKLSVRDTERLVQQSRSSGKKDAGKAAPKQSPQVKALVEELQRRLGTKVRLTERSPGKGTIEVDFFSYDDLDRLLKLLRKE

B1: His6-ParA_(21-274)-D60A (domain or fragment, Myxococcus xanthus DK1622, UniProt Q1CVJ3 21-274, looked up)
chain: VGRIICISNQKGGVGKTTTAINLAASLASAERRTLLVDMAPQGNAGSGLGIKQDNITGTIYEALLNDRPIQELLHPTELRYLQVVPATPDLTGAEVELVNQDNREFRLRDALRPLAAEYDYIIIDCPPSLGLLTLNALAAADSVLIPLQCEYYALEGLSQLTHTIDLVKQGLNPDLKMEGILLTMFDSRANIAHQVVEEVRGYFKKQVFEVIVPRNVRLSECPSFGKPIILYDIKSKGCESYLALGRELMKRDT
notes: For NMR the protein was 2H/13C/15N-labelled; source: E. coli Rosetta(DE3)pLysS, purified (as His6-ParA)
B2: ParA (wild type) (natural protein, Myxococcus xanthus DK1622, UniProt Q1CVJ3 1-283, looked up)
chain: MHCITRGALAYGRGERGWATVGRIICISNQKGGVGKTTTAINLAASLASAERRTLLVDMDPQGNAGSGLGIKQDNITGTIYEALLNDRPIQELLHPTELRYLQVVPATPDLTGAEVELVNQDNREFRLRDALRPLAAEYDYIIIDCPPSLGLLTLNALAAADSVLIPLQCEYYALEGLSQLTHTIDLVKQGLNPDLKMEGILLTMFDSRANIAHQVVEEVRGYFKKQVFEVIVPRNVRLSECPSFGKPIILYDIKSKGCESYLALGRELMKRDTPKSPRRRVA
notes: ParA of Myxococcus xanthus DK1622, translation product of ORF MXAN_7477; No tag cleavage step is described; also called His6-ParA; wild-type ParA; source: E. coli Rosetta(DE3)pLysS, purified (HisTrap HP, HiTrap Q HP)
B3: ParA-D60A (natural protein, Myxococcus xanthus DK1622, UniProt Q1CVJ3 1-283, looked up)
chain: B2 chain with D60A
notes: ParA of Myxococcus xanthus DK1622 lacking the catalytic aspartic acid D60; also called ATPase-deficient ParA variant; source: E. coli Rosetta(DE3)pLysS, purified (as His6-ParA)
B4: ParB_(1-20) peptide (peptide, UniProt Q1CVJ4 1-20, looked up)
peptide: MVKADMQKRALGRGLSALIP
notes: also called N-terminal peptide of ParB; source: synthetic peptide

What was measured:
[1] = molecular target: the molecule itself; test: crystal structure; His6-ParA_(21-274)-D60A (1 mM) with 10 mM ATP and 5 mM ParB_(1-20), sitting drop, 20 °C; crystals held only the ParA dimer with ATP
[2] = molecular target: the molecule itself; test: SEC; ParA proteins at 2.5 mg/mL (75 µM) in 25 mM Tris/HCl, 200 mM KCl, 5 mM MgSO4, 2 mM DTT, pH 7.4; Superdex 75 3.2/300; monomer to dimer
ParB-Q52A = molecular target: T1, ParB-Q52A; test: BLI; ParB-Q52A (10 µM) loaded on closed parS DNA on the biosensor; ParA variants (5 µM) in solution with ATP (1 mM) and 500 mM KCl; settings: both partners purified
[3] = molecular target: the molecule itself; test: HDX-MS; 50 µM ParA or ParA-D60A with 1 mM ATP, with or without 1 mM ParB_(1-20) and/or 1 mg/mL salmon sperm DNA; 25 °C (Datasets 1 and 2)
His6-ParA_(21-274)-D60A = molecular target: B1; test: NMR titration; 2H/13C/15N-labelled ParA_(21-274)-D60A (300 µM) titrated with unlabelled ParB_(1-20) to 1:5.8; TROSY 1H-15N HSQC, 298 K, 50 mM HEPES pH 6.8, 150 mM KCl, 5 mM MgSO4, 1 mM DTT, 1 mM ATP; settings: both partners purified
ParA (wild type) = molecular target: B2; test: HDX-MS; 50 µM ParA or ParA-D60A with 1 mM ATP, with or without 1 mM ParB_(1-20) and/or 1 mg/mL salmon sperm DNA; 25 °C (Datasets 1 and 2); settings: both partners purified

Binder: B1
binding result [1]: binds

Binder: B2
binding result [2]: binds | binding result (ParB-Q52A): binds

Binder: B3
binding result [3]: binds

Binder: B4
binding result (His6-ParA_(21-274)-D60A): binds | binding result (ParA (wild type)): binds
